Data published in patent publication US20030073629A1, “Omi and domains thereof that disrupt IAP-caspase interaction” (priority 2001, published 2003).

B1: Omi-S306A: recombinant mature Omi with active site Ser306 mutated to Ala, C-terminal His6 tag (protein)
chain: AVPSPPPASPRSQYNFIADVVEKTAPAVVYIEILDRHPFLGREVPISNGSGFVVAADGLIVTNAHVVADRRRVRVRLLSGDTYEAVVTAVDPVADIATLRIQTKEPLPTLPLGRSADVRQGEFVVAMGSPFALQNTITSGIVSSAQRPARDLGLPQTNVEYIQTDAAIDFGNAGGPLVNLDGEVIGVNTMKVTAGISFAIPSDRLREFLHRGEKKNSSSGISGSQRRYIGVMMLTLSPSILAELQLREPSFPDVQHGVLIHKVILGSPAHRAGLRPGDVILAIGEQMVQNAEDVYEAVRTQSQLAVQIRRGRETLTLYVTPEVTEHHHHHH
B2: Omi-ΔAVPS: recombinant mature Omi with deletion of the AVPS motif, C-terminal His6 tag (protein)
chain: PPPASPRSQYNFIADVVEKTAPAVVYIEILDRHPFLGREVPISNGSGFVVAADGLIVTNAHVVADRRRVRVRLLSGDTYEAVVTAVDPVADIATLRIQTKEPLPTLPLGRSADVRQGEFVVAMGSPFALQNTITSGIVSSAQRPARDLGLPQTNVEYIQTDAAIDFGNSGGPLVNLDGEVIGVNTMKVTAGISFAIPSDRLREFLHRGEKKNSSSGISGSQRRYIGVMMLTLSPSILAELQLREPSFPDVQHGVLIHKVILGSPAHRAGLRPGDVILAIGEQMVQNAEDVYEAVRTQSQLAVQIRRGRETLTLYVTPEVTEHHHHHH
B3: Smac: mitochondrial IAP-binding protein; recombinant mature form with C-terminal His6 tag (protein, UniProt Q9NR28 22-239, looked up)
Diablo IAP-binding …: LCVPVVANFKKRCFSELIRPWHKTVTIGFGVTLCAVPIAQKSEPHSLSSEALMRRAVSLVTDSTSTFLSQTTYALIEAITEYTKAVYTLTSLYRQYTSLLGKMNSEEEDEVWQVIIGARAEMTSKHQEYLKLETTWMTAVGLSEMAAEAAYQTGADQASITARNHIQLVKLQVEEVHQLSRKAETKLAEAQIEELRQKTQEEGEERAESEQEAYLRED
modifications: C-terminal His6 tag
B4: AAAS: C-terminal Flag-tagged Omi precursor mutant with the AVPS motif mutated to AAAS (protein, UniProt O43464 1-458, looked up, variant V135A P136A)
chain: MAAPRAGRGAGWSLRAWRALGGIRWGRRPRLTPDLRALLTSGTSDPRARVTYGTPSLWARLSVGVTEPRACLTSGTPGPRAQLTAVTPDTRTREASENSGTRSRAWLAVALGAGGAVLLLLWGGGRGPPAVLAAAASPPPASPRSQYNFIADVVEKTAPAVVYIEILDRHPFLGREVPISNGSGFVVAADGLIVTNAHVVADRRRVRVRLLSGDTYEAVVTAVDPVADIATLRIQTKEPLPTLPLGRSADVRQGEFVVAMGSPFALQNTITSGIVSSAQRPARDLGLPQTNVEYIQTDAAIDFGNSGGPLVNLDGEVIGVNTMKVTAGISFAIPSDRLREFLHRGEKKNSSSGISGSQRRYIGVMMLTLSPSILAELQLREPSFPDVQHGVLIHKVILGSPAHRAGLRPGDVILAIGEQMVQNAEDVYEAVRTQSQLAVQIRRGRETLTLYVTPEVTE
modifications: full-length C-terminal Flag tag
B5: active site Omi precursor mutant: S306A Omi precursor with mutant VVAS sequence instead of the AVPS motif (protein, UniProt O43464 1-458, looked up, variant A134V P136A S306A)
chain: MAAPRAGRGAGWSLRAWRALGGIRWGRRPRLTPDLRALLTSGTSDPRARVTYGTPSLWARLSVGVTEPRACLTSGTPGPRAQLTAVTPDTRTREASENSGTRSRAWLAVALGAGGAVLLLLWGGGRGPPAVLAVVASPPPASPRSQYNFIADVVEKTAPAVVYIEILDRHPFLGREVPISNGSGFVVAADGLIVTNAHVVADRRRVRVRLLSGDTYEAVVTAVDPVADIATLRIQTKEPLPTLPLGRSADVRQGEFVVAMGSPFALQNTITSGIVSSAQRPARDLGLPQTNVEYIQTDAAIDFGNAGGPLVNLDGEVIGVNTMKVTAGISFAIPSDRLREFLHRGEKKNSSSGISGSQRRYIGVMMLTLSPSILAELQLREPSFPDVQHGVLIHKVILGSPAHRAGLRPGDVILAIGEQMVQNAEDVYEAVRTQSQLAVQIRRGRETLTLYVTPEVTE
modifications: full-length
B6: Omi precursor: C-terminally Flag-tagged full-length Omi precursor (SEQ ID NO:1) expressed from a transfected construct (protein, listed as Homo sapiens)
chain: MAAPRAGRGAGWSLRAWRALGGIRWGRRPRLTPDLRALLTSGTSDPRARVTYGTPSLWARLSVGVTEPRACLTSGTPGPRAQLTAVTPDTRTREASENSGTRSRAWLAVALGAGGAVLLLLWGGGRGPPAVLAAVPSPPPASPRSQYNFIADVVEKTAPAVVYIEILDRHPFLGREVPISNGSGFVVAADGLIVTNAHVVADRRRVRVRLLSGDTYEAVVTAVDPVADIATLRIQTKEPLPTLPLGRSADVRQGEFVVAMGSPFALQNTITSGIVSSAQRPARDLGLPQTNVEYIQTDAAIDFGNSGGPLVNLDGEVIGVNTMKVTAGISFAIPSDRLREFLHRGEKKNSSSGISGSQRRYIGVMMLTLSPSILAELQLREPSFPDVQHGVLIHKVILGSPAHRAGLRPGDVILAIGEQMVQNAEDVYEAVRTQSQLAVQIRRGRETLTLYVTPEVTE
modifications: C-terminal Flag tag

Assays:
[1] = target: T1, caspase-9 interaction with XIAP (procaspase-3 activation) (Homo sapiens, UniProt P98170); test: Procaspase-3 activation in XIAP-containing S100 extracts stimulated with cytochrome c and dATP; format: biochemical; details: S100 extracts with purified XIAP, cytochrome c plus dATP; 10, 50 or 300 ng protein
T1 construct: caspase-9: endogenous in 293T/HEK293 S100 extract
T1 sequence (P98170 whole entry): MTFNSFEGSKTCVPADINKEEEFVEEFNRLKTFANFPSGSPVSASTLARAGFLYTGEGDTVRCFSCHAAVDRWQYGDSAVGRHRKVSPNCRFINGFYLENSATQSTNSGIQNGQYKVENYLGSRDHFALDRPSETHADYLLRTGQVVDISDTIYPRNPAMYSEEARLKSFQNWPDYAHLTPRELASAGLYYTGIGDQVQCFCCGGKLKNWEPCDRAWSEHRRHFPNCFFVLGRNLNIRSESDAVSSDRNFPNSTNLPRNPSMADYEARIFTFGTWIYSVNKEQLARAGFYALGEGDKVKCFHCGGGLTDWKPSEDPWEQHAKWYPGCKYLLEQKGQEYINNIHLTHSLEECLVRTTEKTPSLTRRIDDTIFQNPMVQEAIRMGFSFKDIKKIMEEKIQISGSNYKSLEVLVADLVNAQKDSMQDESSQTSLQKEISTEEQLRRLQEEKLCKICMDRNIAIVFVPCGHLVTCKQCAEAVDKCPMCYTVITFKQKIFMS
Protocol: FIG. 17 is a scanned image of an autoradiogram, representing SDS-PAGE analysis of ^35S-labeled procaspase-3 following stimulation of 293T S100 extracts (20μg) mixed with purified XIAP (50 ng) with cytochrome c (0.5 μg) plus dATP (1 mM), in the presence of increasing amounts (10, 50, or 300 ng, respectively) of purified mature WT Omi, Omi-ΔAVPS, Omi-S306A, or mature Smac in 10 μl reaction volume. In the fifth lane, S100 extracts were incubated with. 300 ng of WT Omi without XIAP.
Next, it was determined whether Omi, like Smac, promotes caspase-9 activity in HEK293 S100 extracts in the presence of XIAP. To measure the caspase-9 activity in these extracts, ^35S-labeled procaspase-3 was added to the S100 extracts and stimulated the extracts with cytochrome c and dATP. […] These observations indicate that Omi, like Smac, is able to disrupt the interaction of caspase-9 with XIAP in the S100 extracts to promote procaspase-3 activation.

[2] = target: T2, GST-BIR3 fusion protein (BIR3 domain of human XIAP) (Homo sapiens, UniProt P98170); test: Interaction of purified recombinant proteins with GST-BIR3 fusion protein (SDS-PAGE, Coomassie); format: binding; details: purified C-terminal His6-tagged recombinant protein; wild type GST-BIR3
T2 construct: Omi associates directly with the BIR3 domain of XIAP
T2 sequence (P98170 238-358 limits assumed): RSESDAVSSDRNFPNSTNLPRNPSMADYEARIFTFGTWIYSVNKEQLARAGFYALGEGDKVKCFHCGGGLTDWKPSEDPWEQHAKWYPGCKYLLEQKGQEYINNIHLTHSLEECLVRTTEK
Text: (§1) FIGS. 7A and 7B are scanned images of Coomassie stained gels representing SDS-PAGE analysis of purified C-terminal His6-tagged recombinant wild type mature Omi (WT), Omi-ΔAVPS, Omi-S306A, and mature Smac (7A) and recombinant Omi and Smac proteins with GST-BIR1, GST-BIR2, GST-BIR3, or GST-BIR3-E314S fusion proteins (7B).
(§2) To determine whether a recombinant Omi lacking the first 133 residues (mature Omi) can interact with the GST-BIR3 fusion protein, this protein was expressed with a C-terminal His6 tag in bacteria and purified to apparent homogeneity (see FIG. 7B). […] FIGS. 7A and 7B show scanned images of Coomassie stained gels representing SDS-PAGE analysis of purified C-terminal His6-tagged recombinant wild type mature Omi (WT), Omi-ΔAVPS, Omi-S306A, and mature Smac (FIG. 7A) and recombinant Omi and Smac proteins with GST-BIR1, 2, GST-BIR3 or GST-BIR3-E314S fusion proteins (FIG. 7B).

[3] = tested on: GST-BIR1, 2 fusion protein; test: Interaction of purified recombinant proteins with GST-BIR1, 2 fusion protein; format: binding, human; details: purified C-terminal His6-tagged recombinant protein
GST-BIR1, 2 fusion protein, sequence (P98170 124-240 limits assumed): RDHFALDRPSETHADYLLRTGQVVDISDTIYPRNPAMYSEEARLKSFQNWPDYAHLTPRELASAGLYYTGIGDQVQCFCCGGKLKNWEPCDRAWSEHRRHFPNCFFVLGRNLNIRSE
Text: as §1, §2

GST-BIR3-E314S mutant = target: T3, GST-BIR3-E314S mutant (Homo sapiens, UniProt P98170, E314S); test: Interaction of purified recombinant proteins with GST-BIR3-E314S mutant; format: binding; details: purified C-terminal His6-tagged recombinant protein
T3 construct: Omi associates directly with the BIR3 domain of XIAP
T3 sequence (P98170 238-358 E314S limits assumed): as the sequence (P98170 238-358 limits assumed) above, with E77S counted along it
Text: as §1
To confirm that Omi associates directly with the BIR3 domain of XIAP but not with the Smac protein, Smac was depleted from the 293 extracts using a Smac monoclonal antibody. Specifically, 293 cellular extracts were either left untreated (undepleted lane of FIG. 4) or depleted with a Smac antibody (lane depleted of FIG. 4). The undepleted and depleted extracts were incubated with the GST-BIR3 protein and the bound proteins were eluted as above. The eluates were then analyzed by far-western blotting with ^35S-XIAP and by western blotting with the Smac antibody as described above (see FIG. 4, left and right panels, respectively). […] The last lane of each panel in FIG. 4 represents the 293 cellular extracts that were bound to the E314S mutant GST-BIR3 fusion protein. […] The asterisk in FIG. 4 indicates non-specific bands and the arrow indicates the IgG band. […]

endogenous XIAP = target: T4, endogenous XIAP (Homo sapiens, UniProt P98170); test: Co-immunoprecipitation with endogenous XIAP in transfected 293T cells; format: cell-based; details: 293T cells transfected with C-terminal Flag-tagged Omi precursors, XIAP western blot
T4 construct: endogenous in cells; host or cells: 293T cells
T4 sequence (P98170 whole entry): as the sequence (P98170 whole entry) above
Text: FIG. 9 is a scanned image of a blot representing western blot analysis using an XIAP monoclonal antibody (upper panel) or Flag antibody (middle panel) of 293T cells transfected with constructs encoding C-terminal Flag-tagged Omi wild type or mutant precursors and immunoprecipitated with Flag antibody. The lower panel is a scanned image of a blot representing total extracts probed with the XIAP antibody. Arrows indicate IgG bands.

Hela cells = test: Staurosporine-induced apoptosis of Hela cells transfected with Omi precursor; format: cell-based, human; details: for apoptosis potentiation compared to vector-transfected cells: staurosporine, indicated or higher doses
Protocol: FIG. 18 is a bar graphic representation of the percentages of GFP-positive apoptotic HeLa cells following treatment with the indicated doses of staurosporine for five hours, 24 hours after transfection. The Hela cells were transfected with an empty vector or a construct encoding a C-terminally Flag-tagged Omi precursor together with pEGFP-N1 plasmid (Clontech) at a 4:1 ratio. The AVPS motif in the […] Omi precursor is mutated to a VVAS sequence (SEQ ID NO:10) to prevent binding to IAPs. The Insert represents the expression of mature Omi wild type and Omi S306A mutant in the transfected cells as determined by immunoblotting with Flag antibody.
To determine whether release of Omi can potentiate apoptosis, human Hela cells were transfected with the Omi precursor, and the cells were stimulated with different doses of staurosporine.

| Molecule | promotion of procaspase-3 activation [1] | interaction with GST-BIR3 fusion protein [2] | apoptosis potentiation compared to vector-transfected cells (Hela cells; five hours) | further results |
| --- | --- | --- | --- | --- |
| B1 | able to promote procaspase-3 activation in the XIAP-containing S100 extracts almost to the same extent as Smac | did not affect its interaction with GST-BIR3 |  |  |
| B2 | abolished its caspase-promoting activity | completely abolished its interaction with the GST-BIR3 fusion protein |  |  |
| B3 |  | able to interact equally with the wild type GST-BIR3 protein |  | interaction with GST-BIR1, 2 fusion protein [3]: able to interact with the GST-BIR1, 2 fusion protein; interaction with GST-BIR3-E314S mutant (GST-BIR3-E314S mutant): not with the GST-BIR3-E314S mutant |
| B4 |  |  |  | interaction with endogenous XIAP in vivo (endogenous XIAP): abolished its interaction with endogenous XIAP |
| B5 |  |  | No apoptosis potentiation was observed |  |
| B6 |  |  | increased apoptosis was observed | transfected cells showing signs of apoptosis (Hela cells; 500 nM staurosporine, five hours, 24 hours after transfection, vector transfected cells ~20%): ~43%; induction of apoptosis (Hela cells; transiently expressed, absence of staurosporine): did not induce apoptosis |
